Molecular target: scFv of the anti-GLA antibody, forcibly expressed on M1 cells (Transfectant)
Test: cell-based or functional assay

Sequence of scFv of the anti-GLA antibody, forcibly expressed on M1 cells (Transfectant) (scFv, as listed by the source): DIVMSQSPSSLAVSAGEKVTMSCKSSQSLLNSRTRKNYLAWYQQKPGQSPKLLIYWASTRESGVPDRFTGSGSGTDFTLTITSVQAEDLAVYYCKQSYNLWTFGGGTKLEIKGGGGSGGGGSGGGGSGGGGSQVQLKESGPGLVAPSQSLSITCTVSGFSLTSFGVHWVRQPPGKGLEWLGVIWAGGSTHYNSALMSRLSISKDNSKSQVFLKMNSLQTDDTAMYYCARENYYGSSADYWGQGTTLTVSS

## CD19 CAR expressed on human T cells (CD19 CAR-T cells)
  cell viability rate of M1 cells (in vitro killing assay, control co-culture): 66.9%

From patent US20220403002A1
